Measurements: patent US20040161809

Molecular target: Staphylococcus aureus thioredoxin (Trx) (UniProt P0A0K6)
Sequence (P0A0K6 whole entry): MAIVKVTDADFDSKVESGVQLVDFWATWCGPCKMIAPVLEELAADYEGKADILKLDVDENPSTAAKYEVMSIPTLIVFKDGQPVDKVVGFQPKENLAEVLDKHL

Q: With “Staphylococcus aureus thioredoxin reductase (TrxB)” as the substance, how does the A412 (DTNB titration of free SH groups formed in insulin), complete reaction: NADPH + Trx + TrxB + insulin read?
A: 0.816 A412

Q: And the A412 (DTNB titration of free SH groups formed in insulin), control with NADPH omitted: Trx + TrxB + insulin?
A: 0.15 A412

Q: What about the A412 (DTNB titration of free SH groups formed in insulin), control with Trx omitted: NADPH + TrxB + insulin of the same substance?
A: 0.493 A412
